Measurements: PMC8669144, “Imaging of Glioblastoma Tumor-Associated Myeloid Cells Using Nanobodies Targeting Signal Regulatory Protein Alpha” (Frontiers in Immunology, 2021)
Residue numbers refer to the chain shown, from its start. Where two headings read alike, the source gives them in different places. One block for each binder: values may come before it.

Legend:
[1] = molecular target: T1, recombinant ligand binding domain of mouse SIRPα (mSIRPα) (Mus musculus, strain  …, UniProt P97797)
[2] = molecular target: T2, recombinant ligand binding domain of mouse SIRPα (mSIRPα) (mouse); assay: SPR
T2 chain: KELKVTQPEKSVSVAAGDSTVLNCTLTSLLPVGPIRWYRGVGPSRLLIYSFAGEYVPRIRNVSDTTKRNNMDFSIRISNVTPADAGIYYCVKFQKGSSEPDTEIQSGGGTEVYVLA

[3] = molecular target: T1, recombinant ligand binding domain of …; assay: SPR; Biacore T200; recombinant antigen immobilised by amine coupling on a CM5 chip; nanobodies injected in 2-fold dilutions from 500 to 1.95 nM; 25°C; HBS (20 mM HEPES pH 7.4, 150 mM NaCl, 0.005% Tween-20, 3.4 mM EDTA); 1:1 binding model; details: both partners purified
[4] = molecular target: T2, recombinant ligand binding domain of …; assay: SPR
[5] = molecular target: T3, mouse SIRPα natively expressed on RAW 264.7 macrophages (Mus musculus, endogenous in RAW 264.7 …, UniProt P97797); assay: flow cytometry on cells; 1 µg purified nanobody with 2 x 10^5 RAW 264.7 cells, 4°C, 1 h; detected with AF488 anti-HA antibody; threshold triple ΔMFI of the non-targeting BabA Nb19; details: one partner purified
T3 construct: also called native murine SIRPα; cell-membrane mSIRPα; source: endogenous, on RAW 264.7 cells

[6] = molecular target: T3, mouse SIRPα natively expressed on RAW …; assay: radioligand binding; 99mTc-labeled nanobodies at 2, 20 and 200 nM on adherent RAW 264.7 cells, 1 h, 4°C; aspecific binding with 100x molar excess of unlabeled Nb; details: one partner purified
[7] = molecular target: T2, recombinant ligand binding domain of …; assay: SPR
[8] = molecular target: T2, recombinant ligand binding domain of …; assay: SPR

T1 sequence (P97797 whole entry, looked up, the tested form may be a part): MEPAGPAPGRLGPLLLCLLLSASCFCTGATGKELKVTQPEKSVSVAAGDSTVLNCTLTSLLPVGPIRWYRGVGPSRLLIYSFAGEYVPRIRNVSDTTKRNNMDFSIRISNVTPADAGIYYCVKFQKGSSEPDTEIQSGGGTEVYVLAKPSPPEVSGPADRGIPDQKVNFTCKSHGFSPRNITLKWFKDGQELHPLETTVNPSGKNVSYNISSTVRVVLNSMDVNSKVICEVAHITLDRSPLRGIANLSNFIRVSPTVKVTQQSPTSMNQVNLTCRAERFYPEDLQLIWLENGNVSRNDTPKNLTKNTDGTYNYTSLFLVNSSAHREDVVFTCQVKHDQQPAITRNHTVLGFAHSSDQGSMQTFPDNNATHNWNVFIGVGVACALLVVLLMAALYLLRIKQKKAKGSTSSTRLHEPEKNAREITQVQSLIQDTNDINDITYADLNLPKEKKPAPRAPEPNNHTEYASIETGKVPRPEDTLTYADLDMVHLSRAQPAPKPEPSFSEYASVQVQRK

binding result [1]: binds
B1: Nb 92 (VHH)
VHH: QVQLQESGGGSVQAGGSLRLSCAASGYISSTSYVGWFRQAPGKEREKVAEARSGGDYTWYADSVKGRFTISQDNAKNTVYLQMNSLKPEDTAIYYCAAGEFGGPYNNWGQGTQVTVSS

binding result [1]: binds
B3: Nb 75 (VHH)
VHH: QVQLQESGGGLVQPGDSLRLSCAASEFAFSSYFMSWVRQAPGKGLEWVSGINTDGSMTYYSDSVKGRFTISRDNAKNTLYLQMNSLKSEDTALYYCVLRGVFSDYALQSQGTQVTVSS

binding result [1]: binds
B4: Nb 1 (VHH)
VHH: QVQLQESGGGSVQAGGSLRLSCSASGHMYGSVIGWFRQAPGKEREGVAAIYTYDGSEYYADSVKGRFTVSQDTQDNAKNTVYLQMSSLNVEDTAMYYCAVGFPLGRLTTVRVLASNEYKYGTQVTVSS

binding result [5]: binds
B6: anti-mSIRPα nanobody Nb89, HA- and His6-tagged (pMECS) (VHH)
VHH: QVQLQESGGGLVQPGGSLRLSCAASGFAFSRNSMRWVRQAPGKGLEWVSSISSDGKYTYYTDSVKGRFAISRDNANNTLYLQMNSLKSEDTALYYCSTGGAPASQGTQVTVSS
notes: also called clone 89; source: E. coli WK6, periplasmic extraction, purified (IMAC, SEC)

binding result [3]: binds
binding result [6]: binds
B8: monovalent anti-mSIRPα nanobody Nb15, His6-tagged (VHH)
VHH: QVQLQESGGGSVQAGGSLRLSCATSGLTYSAYCMGWFRQAPGKGRETVAQINLGDGDTYYADSVKGRFAISQDNAKNTVHLLMNGLKPEDTAIYYCAGSDHMCAKWHYWGQGTQVTVSS
notes: both carry a C-terminal His6; also called monovalent Nb15; anti-SIRPα Nb15; source: E. coli WK6, periplasmic extraction, purified (IMAC, SEC); not shown: His6, C-terminal, kept

Kd [2]: 49.4 nM
koff [4]: 0.00809 s⁻¹
Kd [7]: 109 nM
B9: monovalent anti-mSIRPα nanobody Nb15, His6-tagged (VHH)
VHH: B8 VHH
modifications: 99mTc tricarbonyl at the His6-tag (in the radioligand binding assay only)

binding result [5]: binds
B10: anti-mSIRPα nanobody Nb15, HA- and His6-tagged (pMECS) (VHH)
VHH: B8 VHH
notes: An alpaca and two dromedaries were immunised; also called clone 15; source: E. coli WK6, periplasmic extraction, purified (IMAC, SEC)

binding result [1]: binds
B11: Nb 3 (VHH)
VHH: QVQLQESGGGSVQAGGSLRLSCAAFGFTYSNYCVTWFRQAPGKERERVASIDRSNGDTLYTESVKGRFTISQDNAKNTVSLVMNSLKPEDTAIYYCAATDRYCADWRTWGQGTQVTVSS

binding result [1]: binds
B12: Nb 53 (VHH)
VHH: QVQLQESGGGSVQAGGSLRLSCAASGYTYSDYCMGWFRQAPGKEREVVAEINIVDGDTYYADSVKGRFTISQDNAKNTVYLRMNSLKPDDTAIYVCAATGRRCQGYNSWGQGTQVTVSS

binding result [5]: binds
B15: anti-mSIRPα nanobody Nb54, HA- and His6-tagged (pMECS) (VHH)
VHH: QVQLQESGGGSVQAGGSLRLSCSASGHMYGSVIGWFRQAPGKERVGVAAIYTYAGSEYYADSVKGRFTVSQDTQDNAKNTVYLQMSSLNVEDTAMYYCAVGFPLGRLTTVRTLASNEYKYWGQGTQVTVSS
notes: also called clone 54; source: E. coli WK6, periplasmic extraction, purified (IMAC, SEC)

binding result [1]: binds
B16: Nb 52 (VHH)
VHH: QVQLQESGGGSVQAGGSLRLSCAASGFTYSNYCMAWLRQAPGKERESVAQININDGDTYYAASVKGRFTISQDNAKNTVYLMMNSLKPEDTAIYYCAATGYGCQGYNAWGQGTQVTVSS

binding result [1]: binds
B17: Nb 47 (VHH)
VHH: QVQLQESGGGSVQAGGSLRLSCAASGFTYSLYCMGWFRQAPGKEREKVAEMDKSSGDTDYADSVKGRFTISQDNAKNTVYLMMNSLKPEDTAIYYCAATGYRCQGYNAWGQGTQVTVSS

koff [8]: 0.00733 s⁻¹
Kd [7]: 57.4 nM
B19: bivalent anti-SIRPα Nb15 (pHEN25 construct, dimerised through a cysteine) (VHH)
VHH: B8 VHH with Q1E
modifications: 99mTc tricarbonyl at the His6-tag (in the radioligand binding assay only)

More lines, now with the values behind:

B2: Nb 33 (VHH)
VHH: B3 VHH with D16G, E26G, A28T, T53S, S61L, I70M, Q82E, V97A, Q108H
binding result [1]: binds

B5: anti-mSIRPα nanobody Nb89 as used in SPR and epitope binning (VHH)
VHH: B6 VHH
notes: source: E. coli WK6, periplasmic extraction, purified (IMAC, SEC)
Kd [2]: 6.9 nM
binding result [3]: binds
koff [4]: 0.0087 s⁻¹

B7: Nb 26 (VHH)
VHH: B8 VHH with S30T, H80Y, G85S, K87Q, G98T, S99T, H101G, M102R, A104Q, H107Q
binding result [1]: binds

B13: Nb 25 (VHH)
VHH: QVQLQESGGGSVQAGGSLRLSCAASGHSFTLDCMGWFRQAPGKERESVAEINMYSGNTYYADSVKGRFTISRDSAKSTVNLQMNSLKPEDTAIYFCAAAPTCARWDYRGQGTQVTVSS
binding result [1]: binds

B14: anti-mSIRPα nanobody Nb54 as used in SPR and epitope binning (VHH)
VHH: B15 VHH
notes: as for B5
Kd [2]: 354 nM
binding result [3]: binds
koff [4]: 0.221 s⁻¹

B18: Nb 12 (VHH)
VHH: QVQLQESGGGSVQAGGSVKLSCATSGLTYSAYCMGWFRQAPGKGRETVAQINLGDGDTYYADSVKGRFTISLDNARNTVYLQMNSLKPEDTAIYYCAATYSSRCASFGYWGQGTQVTVSS
binding result [1]: binds

B20: bivalent anti-SIRPα Nb15 (pHEN25 construct, dimerised through a cysteine) (VHH)
VHH: B8 VHH with Q1E
notes: as the VHH of m7 (Nb15); fourteen amino acid long linker and a cysteine after the His6 tag (pHEN25); The cysteine allows dimerization; The order of His6 tag, linker and cysteine is worded loosely; also called bivalent Nb15; bivalent construct of Nb15; source: E. coli WK6 (pHEN25), periplasmic extraction, purified (IMAC, SEC); not shown: His6, C-terminal, kept
binding result [3]: binds
binding result [6]: binds

B21: Nb 35 (VHH)
VHH: QVQLQESGGGSVQAGGSLRLSCAASGYSYSSTCMAWFRQVPGKEREGVASINNSGTATYYADSVKGRFTISRDNAKNTLYLLMDNLKPEDTAIYYCAASLRRGQDCLGAIDYWGQGTQVTVSS
binding result [1]: binds

B22: Nb 42 (VHH)
VHH: QVQLQESGGGSVQAGGSLRLSCAASGFTYSNYCMAWFRQAPGKERESVAQINNNDGDTYYAASVKGRFTISQDNAKNPVYLQMDSLKPEDTAMYYCAASDSRCLEYKYWGQGTQVTVSS
binding result [1]: binds
